{"source": "patent US20090252748A1", "about": "(Biogen, published 2009)", "binders": {"B1": {"name": "3B5.2 monoclonal antibody (ATCC PTA-8106) (antibody, mouse IgG1, V domains shown)", "VH": "QVQLQQPGAELVRPGTSVKLSCRASGYTFTSYWMHWVKQRPGQGLEWIGVIDPSDSYTNYNQKFRGKATLTVDTSSSTAYMQLSSLTSEDSAVYYCARPYYGSHWFFDVWGTGTTVTVSS", "VL": "QIVLTQSPAIMSASPGEKVTMTCSASSRVSYVHWYQQKSGTSPKRWLYDTSNLASGVPARFGGNGSGTSYSLTISSMEAEDAATYYCQQWSTNPPTFGGGTKLEIK", "modifications": "N-linked glycosylation site in FR3 (appears glycosylated)", "notes": "murine IgG1/kappa; also called 2.P3B5.2"}, "B2": {"name": "D13 (full-length antibody with the Li13 variable region) (antibody, V domains shown)", "VH": "EVQLLESGGGLVQPGGSLRLSCAASGFTFSHYEMYWVRQAPGKGLEWVSRIVSSGGFTKYADSVKGRFTISRDNSKNTLYLQMNSLRAEDTAVYYCATEGDNDAFDIWGQGTTVTVSS", "VL": "DIQMTQSPATLSLSPGERATLSCRASQSVSSYLAWYQQKPGQAPRLLIYDASNRATGIPARFSGSGSGTDFTLTISSLEPEDFAVYYCQQRSNWPMYTFGQGTKLEIK", "notes": "also called 72-D03 (Dli13) Ab"}, "B3": {"name": "D06 (full-length antibody with the Li06 variable region) (antibody, V domains shown)", "VH": "EVQLLESGGGLVQPGGSLRLSCAASGFTFSEYPMDWVRQAPGKGLEWVSSIYSSGGSTVYADSIKGRFTISRDNSKNTLYLQMNSLRAEDTAVYYCAREGDSDAFDIWGQGTMVTVSS", "VL": "DIQMTQSPSTLSASVGDRVTITCRASQSISSWLAWYQQKPGKAPNLLIYAASSLRTGVPSRFRGSGSGTDFTLTISSLQPEDFATYYCLQDYSYPLTFGQGTKLEIK", "notes": "also called 34-F02 (Dli06) Ab"}}, "key": {"[1]": {"molecular_target": "T1, human Sp35 protein expressed on transfected cells (human, UniProt Q96FE5 40-620)", "T1 construct": "also called huSp35; hLINGO-1", "T1 sequence": "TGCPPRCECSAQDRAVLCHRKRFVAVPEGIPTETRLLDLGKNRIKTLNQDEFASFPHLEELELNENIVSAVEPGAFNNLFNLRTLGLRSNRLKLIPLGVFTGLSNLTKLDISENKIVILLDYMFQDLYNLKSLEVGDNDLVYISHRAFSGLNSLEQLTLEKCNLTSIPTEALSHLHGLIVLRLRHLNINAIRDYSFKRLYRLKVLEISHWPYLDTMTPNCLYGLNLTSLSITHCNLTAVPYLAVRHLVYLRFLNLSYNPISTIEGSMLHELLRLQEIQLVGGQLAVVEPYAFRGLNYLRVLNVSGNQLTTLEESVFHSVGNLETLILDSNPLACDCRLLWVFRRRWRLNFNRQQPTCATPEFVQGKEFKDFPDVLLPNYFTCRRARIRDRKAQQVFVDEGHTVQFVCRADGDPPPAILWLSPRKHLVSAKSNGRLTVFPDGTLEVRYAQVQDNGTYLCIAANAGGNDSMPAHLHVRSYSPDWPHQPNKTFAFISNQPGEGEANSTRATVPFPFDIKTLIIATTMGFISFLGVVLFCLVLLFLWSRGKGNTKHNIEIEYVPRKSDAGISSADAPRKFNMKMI", "experiment": "FACS direct binding, CHO cells stably transfected with human Sp35 (LINGO-1), mean fluorescence (MCF) against antibody concentration [panel Human]", "method": "(§1) In similar experiments, CHO cells stably transfected with Sp35 were used in FACS analysis to further characterize the binding properties of 3B5.2 and 7P1D5.1G9. […] Specifically, the 3B5.2 and 7P1D5.1G9 antibodies were tested for their ability to bind CHO cells transfected with, and expressing, human or murine Sp35. […] Additionally, the 3B5.2 antibody bound more cells as measured by the mean fluorescence (MCF) than 7P1D5.1G9."}, "Ig region of Sp35": {"molecular_target": "T2, Ig region of Sp35 (Homo sapiens (Human), UniProt Q96FE5 425-499)", "T2 sequence": "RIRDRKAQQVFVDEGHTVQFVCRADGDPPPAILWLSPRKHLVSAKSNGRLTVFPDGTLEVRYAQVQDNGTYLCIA", "experiment": "ELISA", "method": "Ovalbumin and BSA were used as controls. […] The affinity of these latter antibodies for mouse and rat Sp35 was restored to the level seen using human Sp35 when amino acid 419 of the mouse or rat Sp35 is changed from histidine (H) to arginine (R). Arginine is the amino acid at position 419 in human Sp35. […] AP substrate was then developed by 10 mg/ml 4 NPP in 0.1 M Glycine, 1 mM MgCl₂, 1 mM ZnCl₂, pH 10.5, and read at O.D. 405.\nIn similar experiments, monoclonal antibodies 3B5.2 and 7P1D5.1G9, as well as the Fab fragment of the 7P1D5.1G9 antibody were tested in ELISA assays for their ability to bind human Sp35, the entire LRR region of Sp35, the Ig region of Sp35 and murine Sp35. […] The 3B5.2 and 7P1D5. 1G9 monoclonal antibodies also bound the LRR region of Sp35."}, "[2]": {"molecular_target": "T3, mouse Sp35 protein expressed on transfected cells (mouse, UniProt Q9D1T0 36-614)", "T3 construct": "whole, on cells; also called mSp35; mLINGO-1", "T3 sequence (looked up)": "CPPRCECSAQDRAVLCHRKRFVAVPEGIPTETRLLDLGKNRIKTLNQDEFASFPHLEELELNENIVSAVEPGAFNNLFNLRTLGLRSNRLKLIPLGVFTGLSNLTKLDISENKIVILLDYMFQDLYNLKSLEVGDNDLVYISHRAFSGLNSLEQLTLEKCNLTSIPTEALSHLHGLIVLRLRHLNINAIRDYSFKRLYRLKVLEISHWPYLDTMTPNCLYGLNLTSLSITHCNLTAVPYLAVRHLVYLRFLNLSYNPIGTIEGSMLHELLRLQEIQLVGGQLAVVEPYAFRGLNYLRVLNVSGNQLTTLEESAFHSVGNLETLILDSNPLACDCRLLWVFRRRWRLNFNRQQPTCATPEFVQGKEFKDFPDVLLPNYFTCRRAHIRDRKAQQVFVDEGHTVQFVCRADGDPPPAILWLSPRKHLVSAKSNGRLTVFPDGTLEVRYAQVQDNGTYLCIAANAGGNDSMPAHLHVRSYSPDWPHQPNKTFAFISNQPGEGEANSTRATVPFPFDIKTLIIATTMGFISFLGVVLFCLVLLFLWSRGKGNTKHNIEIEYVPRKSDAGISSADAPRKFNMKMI", "experiment": "FACS direct binding, CHO cells stably transfected with murine Sp35 (LINGO-1), mean fluorescence (MCF) against antibody concentration [panel Murine]", "method": "as §1"}, "[3]": {"molecular_target": "T4, Sp35 fragment 417-498 human Fc (human, UniProt Q96FE5 423-504)", "T4 construct": "not shown: Fc, printed 'human Fc'", "T4 sequence": "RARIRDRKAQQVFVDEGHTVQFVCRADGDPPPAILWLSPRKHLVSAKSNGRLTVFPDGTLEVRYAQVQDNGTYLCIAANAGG", "experiment": "fragment binding"}, "AP-Sp35 (418-498)": {"molecular_target": "T5, AP-Sp35 (418-498) (Homo sapiens (Human), UniProt Q96FE5 424-504)", "T5 sequence": "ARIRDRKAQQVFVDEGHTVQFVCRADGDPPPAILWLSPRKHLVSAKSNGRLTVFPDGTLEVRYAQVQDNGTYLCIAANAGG", "experiment": "fragment binding"}}, "data": [{"binder": "B1", "values": [{"measurement": "EC50 (read off the curve)", "setting": "[1]", "result": "~0.4", "unit": "nM"}, {"measurement": "binding result", "setting": "Ig region of Sp35", "result": "no binding"}, {"measurement": "EC50 (read off the curve)", "setting": "[2]", "result": "~0.4", "unit": "nM"}]}, {"binder": "B2", "values": [{"measurement": "binding result", "setting": "[3]", "result": "no binding"}]}, {"binder": "B3", "values": [{"measurement": "binding result", "setting": "AP-Sp35 (418-498)", "result": "no binding"}]}]}
